Values belong to the binder of their own block, whether it stands above or below them.
B1: rhMD2 (Accession #BAA78717; Glu17-Asn160) with 10-His tag at the C-terminus (receptor, human)
chain: EAQKQYWVCNSSDASISYTYCDKMQYPISINVNPCIELKRSKGLLHIFYIPRRDLKQLYFNLYITVNTMNLPKRKEVICRGSDDDYSFCRALKGETVNTTISFSFKGIKFSKGKYKCVVEAISGSPEEMLFCLEFVILHQPNSNHHHHHHHHHH
notes: range 17-160; From R&D Systems, expressed in E. coli; also called TLR4 co-receptor MD2
B2: Recombinant human (rh) CIRP (Accession #NP_001271; full length) with C-terminal DDK tag (ligand)
chain: MASDEGKLFVGGLSFDTNEQSLEQVFSKYGQISEVVVVKDRETQRSRGFGFVTFENIDDAKDAMMAMNGKSVDGRQIRVDQAGKSSDNRSRGYRGGSAGGRGFFRGGRGRGRGFSRGGGDRGYGGNRFESRSGGYGGSRDYYSSRSQSGGYSDRSSGGSYRDSYDSYATHNE
notes: Bought from Origene, expressed in HEK293 cells; also called recombinant human CIRP; human CIRP; not shown: C-terminal DDK tag

Key:
[1] = molecular target: B1; experiment: SPR, 15-mer oligopeptide as analyte over immobilized rhMD2
Description: (§1) Analysis of protein-protein and peptide-protein interactions were conducted using the BIAcore T200 instrument (GE Healthcare). Binding reactions were performed in 1×PBS buffer containing 0.01% Tween-20 (pH 7.4). The CM5 dextran chip (flow cell-2) was first activated by injection with 89 μl of 0.1 M […] and 0.1 M N-hydroxysuccinimide. An aliquot of 200 μl of 5 μg/ml of the ligand diluted in 10 mM sodium acetate (pH 4.5) was injected into flow cell-2 of the CM5 chip for immobilization. Next, 135 μl of 1 M ethanolamine (pH 8.2) was then injected to block the remaining active sites. The flow cell-1 without coating with the ligand was used as a control to evaluate nonspecific binding. The binding analyses were performed at flow rate of 30 μl/min at 25° C. […] The signal from the blank channel (flow cell-1) was subtracted from the channel (flow-cell 2) coated with the ligand. Data were analyzed by the BIAcore T200 Evaluation Software. For all samples, a blank injection with buffer alone was subtracted from the resulting reaction surface data. Data were globally fitted to the Lagmuir model for a 1:1 binding.
(§2) Surface plasmon resonance (SPR) analysis was utilized to determine the physical interaction and binding affinity between rhCIRP and pattern-recognition receptors and MD2.

[2] = molecular target: T1, rhTLR4 (Accession #O00206; Glu24-Lys631) with 10-His tag at the C-terminus (human, UniProt O00206 24-631); experiment: SPR, BIAcore T200, positive control; rhMD2 to rhTLR4, positive control
T1 construct: range 24-631; From R&D Systems, expressed in mouse myeloma NS0 cells
Description: as §1, §2

[3] = molecular target: B2; experiment: SPR, BIAcore T200, kinetic analysis, 1:1 Langmuir fit; target rhMD2
Description: as §1, §2

[4] = molecular target: T1, rhTLR4 (Accession #O00206; …); experiment: SPR, BIAcore T200, kinetic analysis, 1:1 Langmuir fit; target rhTLR4
Description: as §1, §2

[5] = molecular target: T2, rhRAGE (Accession #Q15109; Ala23-Ala344) with C-terminal 6-His tag (human, UniProt Q15109 23-344); experiment: SPR (BIAcore T200), analyte rhRAGE over immobilized rhCIRP; apparent KD from kinetic analysis
T2 construct: range 23-344; From Biovision, expressed in HEK293 cells
Description: as §1, §2

[6] = molecular target: T3, rhTLR2 (Accession #NP_003255; Glu21-Leu590) with 10-His tag at the C-terminus (human, UniProt O60603 21-590); experiment: SPR (BIAcore T200), analyte rhTLR2 over immobilized rhCIRP; apparent KD from kinetic analysis
T3 construct: range 21-590; From R&D Systems, expressed in mouse myeloma NS0 cells
Description: as §1, §2

[7] = molecular target: T4, rhTLR4/MD2 complex (rhTLR4 Glu24-Lys631 co-expressed with rhMD2 Glu17-Asn160, His tag at each protein) (human, UniProt O00206 24-631; Q9Y6Y9 17-160); experiment: SPR, BIAcore T200, kinetic analysis, 1:1 Langmuir fit; target rhTLR4/MD2 complex
T4 construct: range 24-631;range 17-160; Purified from NS0 cells co-expressing both proteins; R&D Systems; not shown: His tag; for the complex only 'His tag at each protein' is said (a general sentence gives a C-terminal 10-His tag for rh)
Description: as §1, §2

T1 sequence (O00206 other isoform, or with tags, fused parts or gaps limits assumed): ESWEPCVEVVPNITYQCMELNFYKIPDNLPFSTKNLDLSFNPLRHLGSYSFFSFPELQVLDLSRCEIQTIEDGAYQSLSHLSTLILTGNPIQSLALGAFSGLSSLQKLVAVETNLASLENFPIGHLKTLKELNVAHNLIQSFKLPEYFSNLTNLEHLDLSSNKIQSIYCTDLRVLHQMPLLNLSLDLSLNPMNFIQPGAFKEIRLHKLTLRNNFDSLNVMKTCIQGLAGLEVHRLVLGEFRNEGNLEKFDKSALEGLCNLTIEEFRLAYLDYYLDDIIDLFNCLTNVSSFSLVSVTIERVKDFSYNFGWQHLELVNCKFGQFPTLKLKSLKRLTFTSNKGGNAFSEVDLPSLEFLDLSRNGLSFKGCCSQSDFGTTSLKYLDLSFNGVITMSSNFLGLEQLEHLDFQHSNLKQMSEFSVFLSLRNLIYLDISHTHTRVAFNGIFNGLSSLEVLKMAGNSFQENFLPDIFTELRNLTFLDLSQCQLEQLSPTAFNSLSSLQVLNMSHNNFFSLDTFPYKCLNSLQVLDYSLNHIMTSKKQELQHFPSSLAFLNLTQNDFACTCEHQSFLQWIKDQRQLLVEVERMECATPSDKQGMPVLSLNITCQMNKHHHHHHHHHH
T4 sequence (O00206 24-631 limits assumed, form in doubt, one chain of several): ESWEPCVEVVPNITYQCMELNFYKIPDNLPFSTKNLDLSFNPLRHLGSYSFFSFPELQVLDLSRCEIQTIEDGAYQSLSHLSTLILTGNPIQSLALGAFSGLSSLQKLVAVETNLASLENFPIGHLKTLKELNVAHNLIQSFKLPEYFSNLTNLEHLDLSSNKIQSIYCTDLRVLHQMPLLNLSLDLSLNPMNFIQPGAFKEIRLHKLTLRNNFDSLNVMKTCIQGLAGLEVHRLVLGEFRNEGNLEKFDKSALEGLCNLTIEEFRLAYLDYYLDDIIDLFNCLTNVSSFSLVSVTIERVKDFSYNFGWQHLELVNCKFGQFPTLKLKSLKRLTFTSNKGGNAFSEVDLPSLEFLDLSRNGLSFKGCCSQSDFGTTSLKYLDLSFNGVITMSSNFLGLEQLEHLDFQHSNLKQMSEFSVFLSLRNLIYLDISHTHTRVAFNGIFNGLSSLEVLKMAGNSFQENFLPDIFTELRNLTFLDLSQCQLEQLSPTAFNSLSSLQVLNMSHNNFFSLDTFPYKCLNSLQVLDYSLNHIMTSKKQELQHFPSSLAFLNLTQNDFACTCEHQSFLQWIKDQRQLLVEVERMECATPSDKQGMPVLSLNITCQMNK
T2 sequence (Q15109 other isoform, or with tags, fused parts or gaps limits assumed): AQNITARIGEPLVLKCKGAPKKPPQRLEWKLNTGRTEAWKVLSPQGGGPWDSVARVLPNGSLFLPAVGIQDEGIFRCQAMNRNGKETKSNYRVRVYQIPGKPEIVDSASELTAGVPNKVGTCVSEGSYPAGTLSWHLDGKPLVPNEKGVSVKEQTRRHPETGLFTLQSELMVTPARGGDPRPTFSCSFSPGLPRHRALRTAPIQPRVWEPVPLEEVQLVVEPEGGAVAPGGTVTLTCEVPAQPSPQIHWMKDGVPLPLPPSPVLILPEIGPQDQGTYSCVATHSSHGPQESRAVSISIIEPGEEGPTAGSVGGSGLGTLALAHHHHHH
T3 sequence (O60603 other isoform, or with tags, fused parts or gaps limits assumed): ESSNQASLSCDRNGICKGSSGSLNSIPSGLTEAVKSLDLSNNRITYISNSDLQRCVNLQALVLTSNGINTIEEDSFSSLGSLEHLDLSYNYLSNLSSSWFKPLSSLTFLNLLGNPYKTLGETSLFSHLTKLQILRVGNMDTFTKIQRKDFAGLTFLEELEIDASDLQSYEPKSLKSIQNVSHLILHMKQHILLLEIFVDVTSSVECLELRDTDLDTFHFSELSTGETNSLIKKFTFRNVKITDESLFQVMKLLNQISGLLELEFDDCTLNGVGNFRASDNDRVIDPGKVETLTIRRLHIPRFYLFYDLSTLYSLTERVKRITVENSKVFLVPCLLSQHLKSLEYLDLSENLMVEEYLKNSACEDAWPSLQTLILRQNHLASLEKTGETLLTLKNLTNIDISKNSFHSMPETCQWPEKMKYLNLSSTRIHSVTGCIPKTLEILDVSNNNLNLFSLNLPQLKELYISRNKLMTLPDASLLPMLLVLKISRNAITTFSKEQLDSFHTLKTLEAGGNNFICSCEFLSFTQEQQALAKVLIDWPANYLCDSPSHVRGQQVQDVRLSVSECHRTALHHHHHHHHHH

- Kd [1]: 129 nM
Binder: GGRGRGRGFSRGGGD (Synthetic, Genscript) [CIRP-derived oligopeptide C22 (human CIRP aa 106-120)]

Binder: B1
- Kd [2]: 53.7 nM
- Kd [3]: 302 nM

- Kd [1]: 1510 nM
Binder: RGFFRGGRGRGRGFS [human CIRP 15-mer oligopeptide aa 101-115]

- Kd [1]: 29.7 nM
Binder: GRGFSRGGGDRGYGG [CIRP-derived oligopeptide C23 (human CIRP aa 111-125)]

Binder: B2
- Kd [4]: 617 nM
- Kd [5]: 33.1 nM
- Kd [6]: 258 nM
- Kd [7]: 239 nM
